Laboratory results taken from paper PMC10329844, “Regulatory architecture of housekeeping genes is driven by promoter assemblies”.

B1: C1 competitor (RBM in random flanks) (dsDNA)
DNA 1: ACTAGCTCTCTGGGAATTGTAGTTCGGCAATCTCT
DNA 2: AGAGATTGCCGAACTACAATTCCCAGAGAGCTAGT
B2: C2 competitor (both RBM half-sites mutated) (dsDNA)
DNA 1: ACTAGCTCTTGATTCCGGAGCTGGAGGCAATCTCT
DNA 2: AGAGATTGCCTCCAGCTCCGGAATCAAGAGCTAGT

Assays:
[1] = target: T1, Ronin (Thap11), Prospec PRO-2009 (UniProt Q96EK4 1-314); assay: competition; abolishes Ronin-stimulated circularization of N3; Circularization: 1x T4 ligase buffer, 100 ng DNA, 1.358 uM protein, 10 uL, 25 min RT, then ligase 20 min RT. AFM: 1x LightShift binding buffer, 350 mM KCl, 1 mM EDTA, 6% glycerol, 10 min on ice, then 0.4x T4 ligase buffer, 20% glycerol, 1 mM EDTA, 2 mM GTP, 30 min RT; details: protein: commercial; blunt
T1 sequence (Q96EK4 whole entry): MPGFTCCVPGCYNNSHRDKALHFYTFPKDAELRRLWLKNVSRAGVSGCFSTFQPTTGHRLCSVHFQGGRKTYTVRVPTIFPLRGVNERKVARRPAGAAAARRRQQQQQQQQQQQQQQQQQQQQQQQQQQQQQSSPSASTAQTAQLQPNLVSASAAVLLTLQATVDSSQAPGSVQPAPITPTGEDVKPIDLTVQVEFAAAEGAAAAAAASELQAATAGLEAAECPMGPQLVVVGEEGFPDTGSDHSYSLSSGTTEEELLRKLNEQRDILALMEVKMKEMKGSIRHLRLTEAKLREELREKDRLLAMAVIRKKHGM

[2] = target: T1, Ronin (Thap11), Prospec PRO-2009; assay: competition; no effect on Ronin-stimulated circularization of N3; Circularization: 1x T4 ligase buffer, 100 ng DNA, 1.358 uM protein, 10 uL, 25 min RT, then ligase 20 min RT. AFM: 1x LightShift binding buffer, 350 mM KCl, 1 mM EDTA, 6% glycerol, 10 min on ice, then 0.4x T4 ligase buffer, 20% glycerol, 1 mM EDTA, 2 mM GTP, 30 min RT; details: protein: commercial; blunt

Binder	binding result [1]	binding result [2]
B1	binds	–
B2	–	no binding
